Patent US5985836A, “Alpha-1 proteinase inhibitor binding peptides” (Bayer Corporation, priority 1998, dated 1999)

Legend:
A1PI [1] = target: T1, A1PI (Homo sapiens, UniProt P01009); assay: Capture and elution of active A1PI with 2M urea buffer (elastase inhibition activity assay and immunonephelometry); type: binding
T1 construct: Human plasma is currently the only approved source of therapeutic AlPI

A1PI [2] = target: T1, A1PI; assay: A1PI yield from dialyzed (aqueous) Effluent II+III; type: binding; settings: 4° C.
Description: Effluent II+III was dialyzed against equilibration buffer at 4° C. to remove the ethanol using a 15,000 molecular weight cut-off membrane. Nephelometry of the Eff. […] A portion of the identified sequences were assayed under the same conditions applied for neat Eff. II+III at 4° C. […] II+III compared to the neat, ethanol-containing feed. The binding strength differed for the aqueous feed as more AlPI eluted in 1M NaCl for the aqueous feed. The AlPI eluted in the 1M NaCl fractions was not as enriched as that eluted in the acid eluates.

A1PI [3] = target: T1, A1PI; assay: A1PI purification from 5 mg hSA + 1 mg A1PI on peptide column, A1PI mass balance; type: binding; settings: Table 10, A1PI, 5 mg hSA + 1 mg A1PI; for Mass Protein per Eluate Fraction, 1M NaCl / Mass Protein per Eluate Fraction, 2% Acetic Acid / Mass Protein per Eluate Fraction, Flow: * Below detection limit; for Percent Eluted by Fraction, 1M NaCl / Percent Eluted by Fraction, 2% Acetic Acid / Percent Eluted by Fraction, 3M NaCl / Percent Eluted by Fraction, Flow: relative to total loaded
In short: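 Peptides on A-Totda-Toyopearl resin (0.1 mmole/g) in 0.4×5 cm columns; 5 mg hSA + 1 mg A1PI loaded at 4 °C or 20 °C with 10 min residence (17 μl/min). Steps of 1M and 3M NaCl, then 2% acetic acid; fractions quantified by immunonephelometry for mass balance.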

A1PI [4] = target: T1, A1PI; assay: Purification of A1PI from Effluent II+III on peptide column, A1PI mass balance; type: binding; settings: Table 11, 1 ml Eff. II+III, 4° C.
In short: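 Run at 4° C: Effluent II+III (1 ml, 20% ethanol) loaded with a 10 min residence. Elution at 865 μl/min, in sequence 1M NaCl, 3M NaCl, 2% acetic acid; A1PI, IgA, IgG and haptoglobin accounted for in each fraction.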

A1PI [5] = target: T1, A1PI; assay: A1PI binding on peptide-resin column, injection of 1 mg A1PI in equilibration buffer; settings: Trp position mutations, 1 mg A1PI
In short: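 Peptides synthesized on A-Totda-Toyopearl chelate resin (0.1 mmole/g) packed in 0.4×5 cm columns; 1 mg A1PI injected in equilibration buffer at 4 °C or 20 °C, 865 or 523 μl/min. Flowthrough, 1M/3M NaCl washes and 2% acetic acid eluate quantified by A280 or immunonephelometry as percent of total eluted.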

[6] = 1 ml dialyzed Eff. II+III (ethanol removed)
[7] = A1PI, 1 ml dialyzed Eff. II+III

T1 sequence (P01009 25-418): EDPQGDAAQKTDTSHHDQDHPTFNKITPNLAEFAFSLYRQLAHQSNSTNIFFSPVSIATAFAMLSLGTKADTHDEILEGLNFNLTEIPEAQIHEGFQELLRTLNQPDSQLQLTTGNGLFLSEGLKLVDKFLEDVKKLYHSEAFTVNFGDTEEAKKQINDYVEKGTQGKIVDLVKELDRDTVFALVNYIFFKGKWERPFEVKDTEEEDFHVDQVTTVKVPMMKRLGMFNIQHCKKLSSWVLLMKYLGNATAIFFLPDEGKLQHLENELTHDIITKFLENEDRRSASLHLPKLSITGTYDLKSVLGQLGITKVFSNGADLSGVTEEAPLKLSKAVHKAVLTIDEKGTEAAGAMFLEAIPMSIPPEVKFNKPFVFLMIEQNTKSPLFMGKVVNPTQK

Neat A1PI: freshly dissolved human alpha-1 proteinase inhibitor fed to the columns
Mass A1PI in Urea Eluate (mg), Activity (A1PI [1]; 1 mg A1PI, 4° C., eluted with 2M urea, pH 6, elastase inhibition activity assay): 0.87 mg | Mass A1PI in Urea Eluate (mg), Nephelometry (A1PI [1]; 1 mg A1PI, 4° C., eluted with 2M urea, pH 6, immunonephelometry): 1.10 mg | Specific Activity (A1PI [1]; activity assay mass relative to immunonephelometry mass): 0.79 mg/mg | Specific Activity (A1PI [1]; mass of A1PI by activity assay relative to immunonephelometry, urea eluate, 4° C.): 0.79 mg/mg

VIYLVR: VIWLVR with Trp at position 3 replaced by Tyr
Mass A1PI per Eluate Fraction, 1M NaCl (A1PI [2]; [6]): 0.12 mg | Mass A1PI per Eluate Fraction, 2% Acetic Acid (A1PI [2]; [6]): 0.16 mg | Mass A1PI per Eluate Fraction, Flowthrough (A1PI [2]; [6]): 0.46 mg | Percent Eluted by Fraction, 1M NaCl (A1PI [2]; [7]): 16% | Percent Eluted by Fraction, 2% Acetic Acid (A1PI [2]; [7]): 22% | Percent Eluted by Fraction, Flowthrough (A1PI [2]; [7]): 62% | Mass Protein per Eluate Fraction, 1M NaCl (A1PI [3]; 4° C.): 0.12 mg | Mass Protein per Eluate Fraction, 2% Acetic Acid (A1PI [3]; 4° C.): 0.75 mg | Mass Protein per Eluate Fraction, Flow (A1PI [3]; 4° C.): 0.12 mg | Percent Eluted by Fraction, 1M NaCl (A1PI [3]; 4° C.): 12% | Percent Eluted by Fraction, 2% Acetic Acid (A1PI [3]; 4° C.): 76% | Percent Eluted by Fraction, 3M NaCl (A1PI [3]; 4° C.): 0% | Percent Eluted by Fraction, Flow (A1PI [3]; 4° C.): 12% | Mass Protein per Eluate Fraction, 1M NaCl (A1PI [3]; 20° C.): 0.07 mg | Mass Protein per Eluate Fraction, 2% Acetic Acid (A1PI [3]; 20° C.): 0.48 mg | Mass Protein per Eluate Fraction, Flow (A1PI [3]; 20° C.): 0.13 mg | Percent Eluted by Fraction, 1M NaCl (A1PI [3]; 20° C.): 11% | Percent Eluted by Fraction, 2% Acetic Acid (A1PI [3]; 20° C.): 70% | Percent Eluted by Fraction, 3M NaCl (A1PI [3]; 20° C.): 0% | Percent Eluted by Fraction, Flow (A1PI [3]; 20° C.): 19% | Mass A1PI per Eluate Fraction, 1M NaCl (A1PI [4]; * Below detection limit): 0.05 mg | Mass A1PI per Eluate Fraction, 2% Acetic Acid (A1PI [4]; * Below detection limit): 0.57 mg | Mass A1PI per Eluate Fraction, Flowthrough (A1PI [4]; * Below detection limit): 0.22 mg | Percent Eluted by Fraction, 1M NaCl (A1PI [4]; A1PI): 6% | Percent Eluted by Fraction, 2% Acetic Acid (A1PI [4]; A1PI): 68% | Percent Eluted by Fraction, Flowthrough (A1PI [4]; A1PI): 27% | % of Total A1PI Eluted by Fraction (Based on Absorbance at 280 nm), 1M NaCl (A1PI [5]; 4° C.): 28% | % of Total A1PI Eluted by Fraction (Based on Absorbance at 280 nm), 2% Acetic Acid (A1PI [5]; 4° C.): 72% | % of Total A1PI Eluted by Fraction (Based on Absorbance at 280 nm), Flowthrough (A1PI [5]; 4° C.): 0% | % of Total A1PI Eluted by Fraction (Based on Absorbance at 280 nm), 1M NaCl (A1PI [5]; 20° C.): 15% | % of Total A1PI Eluted by Fraction (Based on Absorbance at 280 nm), 2% Acetic Acid (A1PI [5]; 20° C.): 85% | % of Total A1PI Eluted by Fraction (Based on Absorbance at 280 nm), Flowthrough (A1PI [5]; 20° C.): 0%
